Experimental data published in patent US20100047893A1 (RESEARCH FOUNDATION OF STATE UNIVERSITY OF NEW YORK, published 2010).

Molecular target: the molecule itself
Assay: nondenaturing 4-20% PAGE and western blot of 1 ug recombinant TbPRMT7-His

B1: recombinant TbPRMT7-His (enzyme)
chain: MPPKQHRHQKKDKNDNALQNTIGFVPPGATLASVSGYRPPDAFVNRIDRNIPVPARLRHTPVSLIEAVNDFHYAMMNDEERNNFYYEVLKKHVTPETGVLEIGAGSGLLSLMAAKLGAKWVVAVEGSEELAKLARENIRANNMEHQVKVLHMMSTELKSKHLPEPPDVLLSEIFGTMMLGESALDYVVDVRNRLLKPTTKIIPQFGTQYAVPIECDALHRISSVSGWRDLDLKHMMTLQDTVSIVFAKHYGIRMNSVNFRRLSDPIELFRVDFSSSNRNDIPRRKHFDVVAKESGTAHAMLFYWKVTDDEFVMSTDPEDTVNNFPRDMQWGQALQLLDASNGPLPTPVVFTEGKNYNFECNFSGDRVILHMQLCPESGNGEMTECEGKTT
notes: also called T. brucei PRMT7; Tb927.7.5490; not shown: His tag
B1: binds.
